In US20210060171A1 (DUKE UNIVERSITY, published 2021):
No end group written: not given here.

Key:
mouse serum albumin = target: T1, mouse serum albumin (mouse, UniProt P07724 25-608); assay: isothermal titration calorimetry, MSA injected into ABD-Dox in PBS at 37 C, independent binding site model
T1 construct: also called MSA

human serum albumin = target: T2, human serum albumin (human, UniProt P02768 25-609); assay: isothermal titration calorimetry, HSA injected into ABD-Dox in PBS at 37 C, independent binding site model
T2 construct: also called HSA; HAS

T1 sequence (P07724 25-608 limits assumed): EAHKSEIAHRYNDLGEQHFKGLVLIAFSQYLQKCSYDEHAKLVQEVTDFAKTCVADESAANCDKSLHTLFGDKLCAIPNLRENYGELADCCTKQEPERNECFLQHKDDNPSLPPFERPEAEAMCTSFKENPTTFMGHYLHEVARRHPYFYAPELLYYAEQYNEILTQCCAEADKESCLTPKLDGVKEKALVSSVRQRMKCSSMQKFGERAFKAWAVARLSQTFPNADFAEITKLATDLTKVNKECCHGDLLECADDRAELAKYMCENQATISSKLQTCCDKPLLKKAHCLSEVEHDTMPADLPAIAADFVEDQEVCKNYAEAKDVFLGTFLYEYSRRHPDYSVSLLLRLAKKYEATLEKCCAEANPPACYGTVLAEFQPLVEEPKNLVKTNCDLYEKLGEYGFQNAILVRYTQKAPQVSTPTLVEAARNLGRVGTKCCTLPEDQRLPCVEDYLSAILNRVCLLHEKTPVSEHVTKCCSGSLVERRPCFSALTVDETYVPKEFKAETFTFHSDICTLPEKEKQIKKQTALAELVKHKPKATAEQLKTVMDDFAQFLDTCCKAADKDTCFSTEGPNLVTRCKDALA

B1: ABD-Dox (ABD-(CGG)4-Dox with 1 and 2 conjugated Dox molecules) (peptide)
chain: GLAEAKVLANRELDKYGVSDYYKNLINNAKTVEGVKALIDEILAALPCGGCGGCGGCGG
modifications: also: 1-2 doxorubicin via EMCH (maleimide, hydrazone) on Cys of C-terminal (CGG)4
notes: Product of sortase A cleavage of KEKE-ELP160-srt-ABD-(CGG)4-Dox; also called AlBiPeD
Binder B1 has a Kd (mouse serum albumin) of 0.0738 µM, a ΔH (mouse serum albumin) of -18.6 kJ/mol and a ΔS (mouse serum albumin) of 76.6 Jmol^-1K^-1. The Kd (human serum albumin) was 0.125 µM, the ΔH (human serum albumin) was -28.1 kJ/mol and the ΔS (human serum albumin) was 41.5 Jmol^-1K^-1.
